Reference: publication PMC4161475, “EhCoactosin Stabilizes Actin Filaments in the Protist Parasite Entamoeba histolytica” (PLoS Pathogens, 2014)

B1: EhCoactosin, full-length wild type (natural protein)
chain: MSGFDLSEVAGPVAEVIDDKNEEVEFVVFGVQTQPNKLVVDAKGKGGLEEVKAALKEDALQFAYYRTISGDEESKRVKFVFISWAGEGIKKPKLRAVMSILKGDVKNVINNFHIELHATSLDDLVEDEIAAKIKKAGGADYSFNTTSN
notes: Cloned in pET28b between NcoI and XhoI; also called EhCoWT; WT EhCoactosin; source: E. coli BL21 (DE3), purified (Nickel-NTA, Superdex 75 gel filtration)
B2: EhCoactosin with the N-terminal seven amino acid residues deleted (domain or fragment)
chain: EVAGPVAEVIDDKNEEVEFVVFGVQTQPNKLVVDAKGKGGLEEVKAALKEDALQFAYYRTISGDEESKRVKFVFISWAGEGIKKPKLRAVMSILKGDVKNVINNFHIELHATSLDDLVEDEIAAKIKKAGGADYSFNTTSN
notes: Coactosin of Entamoeba histolytica, NCBI XP_650926.1, 7 residues deleted from the N terminus; The tag is told for the EhCoactosin gene in pET28b; also called EhCoΔN; N-terminal truncation mutant; source: E. coli BL21 (DE3), purified (Nickel-NTA, Superdex 75 gel filtration)

Target: G-actin (rabbit skeletal muscle actin, monomeric) (rabbit, UniProt P68135 1-377)
Experiment: ELISA; solid-phase assay: wells coated with 5 µM G-actin in PBS, 5 µM protein added, detected with anti-EhCoactosin antibody; in the presence of Ca2+ (2 mM) or EGTA (5 mM)
Details: both partners purified

Binder	fold of the level of binding of EhCaBP1 [fold]	fold increase in binding against WT [fold]
B1	2	–
B2	–	2
